{"source": "paper PMC12632274", "about": "“The PA2803-encoded PcrP exhibits a novel non-catalytic function and contributes to polymyxin B resistance in P. aeruginosa” (Journal of Bacteriology, 2025)", "proteins": {"B1": {"name": "6xHis-PcrP (PA2803), recombinant, purified from E. coli (natural protein)", "chain": "MPSSDQLPRFTALLFGLSGGLVDFGARTLSLALLRSHPHSPAEHLRDASLLPFAEAQSFLLRRKPNKSERQRLEQALDEAAGEQAEAIAGAVALLESLDEQRIPYAWQDELPESVCQRLAAPLGRANALIPLAGARPWPAPDGCWQALARLGIERLDGCVLVSAQPRQLQAGLNAGLWTIGLAASGPSCGLSPADWDALGHTERDRLRADATLELYRLGVHSVIDHLGELQPCLHDLAVRRLKGEKP", "notes": "PcrP (PA2803), Pseudomonas aeruginosa PAO1; cloned NdeI/EcoRI into pSKB3; No removal of the His tag is described; also called 6XHis-PA2803; pAAK001 construct; source: E. coli BL21(DE3), purified (Ni-NTA)"}}, "target": "the molecule itself", "assay": "cross-linking; 50 µM purified PcrP with 0.02, 0.05, 0.1 and 0.2% glutaraldehyde, 2 min, 20 mM HEPES pH 7.8, 50 mM NaCl, 1% glycerol; stopped with Tris-HCl; 12% SDS-PAGE, Coomassie", "data": [{"protein": "B1", "values": [{"measurement": "stoichiometry N", "result": 2}]}]}
